Source: the nanobody polyreactivity screen of Harvey et al. (2022)

Test: yeast display, Sf9 membrane polyspecificity reagent, FACS + sequencing; frameworks hold sequencing errors
Outline: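 Galactose-induced (36–48 hours) yeast carrying a synthetic nanobody display library were exposed to 10% biotinylated, detergent-solubilized Sf9 membrane reagent at 4 °C for 1 hour. FACS followed streptavidin microbead enrichment, using low and high (top ~1%) gates for expression (anti-HA) and reagent binding (streptavidin). Colony PCR, MiSeq 2 × 250 sequencing and CDR-length filtering followed. Labels for polyreactivity reflect the gate of origin.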

Sequence	polyreactivity (PSR sort gate)
QVQLVESGGGLVQAGGSLRLSCAASGRIFYPNVMGWYRQAPGKERELVAAITWSSGSTYYADSVKGRFTISRDNAKNTVYLQMNSLKPEDTAVYYCAAGLRWHRKFYYWGQGTQVTVSS	high polyreactivity
QVQLVESGGGLVQAGGSLRLSCAASGRIFYPYAMGWYREAPGKERELVAAITVRGGRTYYADSVKGRFTFSRDNAKNTVYLQMNSLKPEDTAVYYCAARRWGAYRHGYWGQGTQVTVSS	high polyreactivity
QVQLVESGGGLVQAGGSLRLSCAASGRIFYPYAMGWYRQAPGKERELVAAIDKGGGSTYYADSVKGRFTISRDNAKNTVYLQMNSLKPEVTAVYYCAAGWEYPYDYWGQGTQVTVSS	low polyreactivity
QVQLVESGGGLVQAGGSLRLSCAASGRIFYPYAMGWYRQAPGKERELVAAISRSGGSTYYADSVKGRFTISRDNAKNTVYLQMNSLKPEDTAVYYCAARRGFGPDGEMDYWGQGTQVTVSS	low polyreactivity
QVQLVESGGGLVQAGGSLRLSCAASGRIFYPYAMGWYRQAPGKERELVAAISRSGGSTYYADSVKGRFTISRDNAKNTVYLQMNSLKPEDTAVYYCAKVTSSGDAVLTQIPYGYDYWGQGTQVTVSS	low polyreactivity
QVQLVESGGGLVQAGGSLRLSCAASGRIFYPYAMGWYRQAPGKERELVAAISSSGGSTYYADSVKGRFTISRDNAKNTVYLQMNSLKPEDTAVYYCNKYSYTYQNPYDSWGQGTQVTVSS	high polyreactivity
QVQLVESGGGLVQAGGSLRLSCAASGRIFYPYAMGWYRQAPGKERELVAAITGRGGSTYYADSVKGRFTISRDNAKNTVYLQMNSLKPEDTAVYYCATVQSGRVRTYDYWGQGTQVTVSS	high polyreactivity
QVQLVESGGGLVQAGGSLRLSCAASGRIFYPYAMGWYRQAPGKERELVAAITWSGGSTYYADSVKGRFTISRDNAKNTVYLQMNSLKPEDTAVYYCAKDHSYGAYYYWGQGTQVTVSS	high polyreactivity
QVQLVESGGGLVQAGGSLRLSCAASGRIFYPYVMGWYRQAPGKERELVAAISDTTGSTYYADSVKGRFTISRDNAKNTVYLQMNSLKPEDTEVFYCAAGWFYATYWRFYYWGQGTQVTVSS	low polyreactivity
QVQLVESGGGLVQAGGSLRLSCAASGRIFYQNAMGWYRQAPGKARELVADSASGGSTYYADSVKGRFTISRDNAKNTVYLQMNSLKPEDPAVYYCATAVLYGDGWYYYWGQGTQVTVSS	low polyreactivity
QVQLVESGGGLVQAGGSLRLSCAASGRIFYQNPMGWYRPAPGKERELVADISSGGSTYYADSVKGRFTISRDNAKNTVYLQMNSLKPEDTAGYYCNTPSGPGTVGSYRRIWYGYWGQGSQVTVSS	low polyreactivity
QVQLVESGGGLVQAGGSLRLSCAASGRIFYQYAMGWYRPAPGKERELVAAIRWSGGSTYYADSVKGRFTISRDNAKNTVYLQMNSLKQEDTAVYYCNARYPYWGAYYDYDYWGQGTQVTVSS	low polyreactivity
QVQLVESGGGLVQAGGSLRLSCAASGRIFYRNAMGWYRKAPGKEREWVAAISSSAGSTFYADSVKGRFTISRDNSKNTVYLQMNSLKPEDTAVYYCAAGSGTFVTRYRYGYWGQGTQVTVSS	high polyreactivity
QVQLVESGGGLVQAGGSLRLSCAASGRIFYRNAMGWYRQAPGKERELVAAISRSGGTTYYADSVKGRFTISRDNAKNTVYLQMNSLKPEDTAVYYCAALVPYSYPGYYYWGQGTQVTVSS	high polyreactivity
QVQLVESGGGLVQAGGSLRLSCAASGRIFYRNAMGWYRQAPGKERELVAAISYSGGRTYYADSVKGRFTISRDNAKNTVYLQMNSLKPEDTAVYYCAARYAWGYVDPGDYWGQGTQVTVSS	high polyreactivity
QVQLVESGGGLVQAGGSLRLSCAASGRIFYRNAMGWYRQAPGKERELVAAITGSGGSTYYADSVKGRFTISRDNAKNTVYLQMNSLKPEDTAVYYCNKPYFLYRPLGTGMEYWGQGTHVTVSS	high polyreactivity
QVQLVESGGGLVQAGGSLRLSCAASGRIFYRNAMGWYRQAPVKERELVASITWRGGRTYYADSVKGRFTISRDNAKNTVYLQMNSLKQEDTAVYYCNAAPRTYNAWDFDYWGQGTQVTVSS	high polyreactivity
QVQLVESGGGLVQAGGSLRLSCAASGRIFYRYAMGWYRQAPGKERELVAAINDGGSTYYADSVKGRFTISRDNAKNTVYLQMNSLKPEDTAVYYCNVVNEHQSDFVVPFDYNHWGQGTQVSVSS	low polyreactivity
QVQLVESGGGLVQAGGSLRLSCAASGRIFYRYAMGWYRQAPGKERELVAAISGSVGSTYADSVKGRFTISRDNAKNTVYLQMNSLKPEDTAVYYCARETYRRYGAYDYWGQGTQVTVSS	low polyreactivity
QVQLVESGGGLVQAGGSLRLSCAASGRIFYRYAMGWYRQAPGKERELVATISRSGGSTNYADSVKGRFTISRDNAKNTVYLQMNSLKPEDTAVYYCNALYLSTRSGDYWGQGTQVTVSS	high polyreactivity
QVQLVESGGGLVQAGGSLRLSCAASGRIFYRYGMGRYRPAHGKVRELVASITRGGSTYYADSVKWRFTISRDNAKNTVYLQMNSLKPEDTAVYDSNRDIGGTSVLDDYWGQGTQVTVSS	low polyreactivity
QVQLVESGGGLVQAGGSLRLSCAASGRIFYRYGMGWYRQAPGKERELVASITRGGSTYYADSVKGRFTISRDNAKNTVYLQMNSLKPEDTAVYYCNAQTRYRYQYGYLGGTGYNYWGQGTQVTVSS	low polyreactivity

Sequence	polyreactivity (PSR sort gate)
QVQLVESGGGLVQAGGSLRLSCAASGRIFYRYGMGWYRQAPGKERELVASITRGGSTYYADSVKGRFTISRDNAKYTVYLQMNSLKPEDTAVYYCATKSSAGYDYWGQGTQVTVSS	low polyreactivity
QVQLVESGGGLVQAGGSLRLSCAASGRIFYRYSMGWYRQAPGKERELVAGISSGGRTNYADSVKGRFTISRDNAKNTVYLQMNSLKPEDTAVYYCNKARSRWSDARSSFGYDYWGQGTQVTVSS	low polyreactivity
QVQLVESGGGLVQAGGSLRLSCAASGRIFYSNAIGWYRQAPGKERELVAAIRDSAGSTRYADSVKGRFTISRDNAKNTVYLQMNSLKPVDTAVYYCNKDYVSIYFEYLDDYWGQGTQVTVSS	low polyreactivity
QVQLVESGGGLVQAGGSLRLSCAASGRIFYSNAMGWYRQAPGKERELVAAIRDSAGSTRYADSVKGRFTISRDNAKNTVYLQMNSLKPEDTAVYYCNKDYVSIYFEYLDDYWGQGTQVTVSS	low polyreactivity
QVQLVESGGGLVQAGGSLRLSCAASGRIFYSYAMGGYRQAPGKERELVAAISSAGSTYYADSVKGSFTISRDNAKNTVYLQMNSLKPEDTAVYYSAKGIWPYHGYRLQRVYDSWGQGTQVTVSS	high polyreactivity
QVQLVESGGGLVQAGGSLRLSCAASGRIFYSYAMGWYRQAPGKELELVAAIDESDGSTYYADSVKGRFTISRDNAKNTVYLQMNSLKPEDTAVYYCAADSLLVLFDYWGQGTQVTVSS	low polyreactivity
QVQLVESGGGLVQAGGSLRLSCAASGRIFYSYAMGWYRQAPGKERELVARISSGGSTNYADSVKGRFTISRDNAKNTVYLQMNSLNPEDTAVYYCAAATIWSGVHYGYWGQGTQVTVSS	low polyreactivity
QVQLVESGGGLVQAGGSLRLSCAASGRIFYSYAMGWYRQAPGKERELVAVITYRGGRTYYADSVKGRFTISRDNAKNTVYLQMNSLKPEDTAVYYCARDPQFYLHTVTDGAYNYWGQGTQVTVSS	low polyreactivity
QVQLVESGGGLVQAGGSLRLSCAASGRIFYSYGMGWSRQGPGKERELVASITISGGGSTYYADSVKGRFTISRDNAKNTVYLQMISLKPEATAVYYCAATLTVWKYIYDYWGQGTQVTVSS	high polyreactivity
QVQLVESGGGLVQAGGSLRLSCAASGRIFYSYTMGWYRQAPGKERELVAGINRSVGSTYYADSVKGRFTISRDNAKNTVYLQMNSLKPEDTAVYYCAAGSRRRSYYTFSSVHGHYYWGQVTQVTVSS	high polyreactivity
QVQLVESGGGLVQAGGSLRLSCAASGRIFYTNAMGWYRQAPGKERELVATISSSGGRTYLRNSVKGRFTLSRDNAKNTVYLQMNSLKPEDTAVDYCAAGWSYPVRNIYYYWGQGTQVTVSS	high polyreactivity
QVQLVESGGGLVQAGGSLRLSCAASGRIFYTNTMGWYRQAPGKERELVAAIRSGTRTYYADSVKGRFTISRDNAKNTVYLQMNSLKPEDTAVYYCAAYYSYYGGDYWGQGTQVTVSS	low polyreactivity
QVQLVESGGGLVQAGGSLRLSCAASGRIFYVNVMGWYRQAPGKERELVAAIYWSDGSTYYADSVKGRFTISRDNAKNTVYLQMNSLKPEDTAVYYCNRRGPYGYKAWAIGTIGDLDYWGQGTQVTVSS	low polyreactivity
QVQLVESGGGLVQAGGSLRLSCAASGRIFYVYAMGGYRQAPGKERELVAGITSGGSTTYADSVKGRFTISRDNAKNTVYLQMNSLKPEDTAVYYCAALQRQSYWTYGYWGHGTQVTVSS	high polyreactivity
QVQLVESGGGLVQAGGSLRLSCAASGRIFYWNAMGCYRQAPGKERELVADISTGGSTYYADSVKGRFTISRDNAKNTVYLQMNRLKPEDTAVYYCAVVYVSLWPSATDWSGFGYWGQGTQVTVSS	low polyreactivity
QVQLVESGGGLVQAGGSLRLSCAASGRIFYWNTMGWYRQAPGKEREFVAAITYGGGRTYYADSVKGRFTISRDNAKNTVYLQMNSLKPEDTAVYYCARRIPTLYLDYDYCGQGTQVTVSS	high polyreactivity
QVQLVESGGGLVQAGGSLRLSCAASGRIFYWYAMAWYRQAPGKERELVAAITSGGSTYYADSVKGRFTISRDNAKNTVYLQMNSLKPEDTAVYYCAADLYYWGDYDYWGQGTQVTVSS	low polyreactivity
QVQLVESGGGLVQAGGSLRLSCAASGRIFYWYAMGWYRQAPGKERELVAAISSTGRTKYADSVKGRFTISRDNAKNTVDLQMNSLKPEDTAVYYCAKRRAAVNGRSDYYYWGQGTQVTVSS	high polyreactivity
QVQLVESGGGLVQAGGSLRLSCAASGRIFYYAMGWYRQAPGKERELVAVITYSGGNTYYADSVKGRFTISRDNAKNTVYLQMNSLKPEDTAVYYCAKAVSTKISRYYHYYKHYDYWGQGTQVTVSS	low polyreactivity
QVQLVESGGGLVQAGGSLRLSCAASGRIFYYNAIGWYRQAPGKERELVATITRAGGTYYADSVKGRFTISRDNAKNTVYLQMNSLKPEDTAVYYCAKRHPIVDDYKGDYWGQGTQVTVSS	low polyreactivity
QVQLVESGGGLVQAGGSLRLSCAASGRIFYYNAMGWYRQAPGKERELVAAINIGGGTKYADSVKGRFTISRDNAKNTVYLQMNSLKPEDTAVYYCAAGIKRYLSYYTRYGYWGQGTQVTVSS	high polyreactivity
